Test [1] concerns the target T1, human B-Cell Maturation Antigen (BCMA) (human, UniProt Q02223 1-54, limits assumed).
T1 construct: also called CD269; TNFRSF17
T1 sequence (looked up): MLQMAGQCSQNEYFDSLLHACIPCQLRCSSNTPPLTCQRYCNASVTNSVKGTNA
The test can be described thus: BioLayer Interferometry, Octet QK384, kinetics mode; bivalent form.
Protocol: (§1) As used herein, the “Kd” or “Kd value” refers to a dissociation constant determined by BioLayer Interferometry, using an Octet QK384 instrument (Fortebio Inc., Menlo Park, Calif.) in kinetics mode. For example, anti-mouse Fc sensors are loaded with mouse-Fc fused antigen and then dipped into antibody-containing wells to measure concentration dependent association rates (kon). Antibody dissociation rates (koff) are measured in the final step, where the sensors are dipped into wells containing buffer only. The Kd is the ratio of koff/kon.

Test [2] deals with T1, human B-Cell Maturation Antigen (BCMA). The test can be described thus: BioLayer Interferometry, Octet QK384, kinetics mode.
Protocol: as §1
Test [3] deals with T2, IgG1k.
T2 construct: off-target control antigen; also called human IgG1 kappa protein
Put plainly: ELISA, UniAb captures human IgG1 kappa, detection goat anti-human kappa HRP.

For test [4], the target named is T3, HSA (Homo sapiens).
T3 construct: off-target control antigen; also called human serum albumin
T3 sequence (P02768 25-609): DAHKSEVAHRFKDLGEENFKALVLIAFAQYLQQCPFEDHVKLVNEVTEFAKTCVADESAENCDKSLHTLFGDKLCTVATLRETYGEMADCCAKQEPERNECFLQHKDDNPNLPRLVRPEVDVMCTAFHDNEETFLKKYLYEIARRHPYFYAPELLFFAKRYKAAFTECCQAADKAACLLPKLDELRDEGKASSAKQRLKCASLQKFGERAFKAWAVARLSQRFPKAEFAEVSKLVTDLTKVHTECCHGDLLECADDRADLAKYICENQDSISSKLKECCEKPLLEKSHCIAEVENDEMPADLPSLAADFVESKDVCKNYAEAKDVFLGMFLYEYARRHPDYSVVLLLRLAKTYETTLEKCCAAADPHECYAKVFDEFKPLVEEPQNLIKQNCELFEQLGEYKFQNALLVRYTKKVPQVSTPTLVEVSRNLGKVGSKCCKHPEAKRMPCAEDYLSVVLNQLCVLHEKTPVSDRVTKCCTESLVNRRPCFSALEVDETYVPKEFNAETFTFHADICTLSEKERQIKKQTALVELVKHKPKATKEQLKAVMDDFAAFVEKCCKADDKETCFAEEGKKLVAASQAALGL
The test can be described thus: ELISA on human serum albumin. (In general: In an ELISA, binding on a coated surface is turned into a signal by an enzyme label.)

Test [5] addresses T1, human B-Cell Maturation Antigen (BCMA). The test can be described thus: ELISA, supernatant UniAb on human BCMA ECD (Abcam ab50089), detection goat anti-human IgG HRP.
Protocol: Supernatants of 6 antibodies were tested for binding in a standard ELISA assay to a human BCMA. Binding to recombinant BCMA protein was determined by ELISA using human BCMA ECD obtained from Abcam (ab50089). The BCMA ECD protein was used at a concentration of 2 μg/mL to capture UniAbs at 50 ng/mL. […] All antibodies were diluted in 1×TBS with 0.05% Tween-20 and 1% dry milk powder.
Test [6] concerns the target T4, Lambda.
T4 construct: off-target control antigen; also called human lambda protein
Put plainly: ELISA on human lambda protein.

Test [7] addresses T5, BVP.
T5 construct: polyreactivity control; a protein mixture; also called Baculo Virus Protein Extract; baculovirus protein
Put plainly: ELISA on baculovirus protein extract (BVP).
Protocol: Off-target binding to Baculo Virus Protein Extract (BVP) was conducted by ELISA as above, with the modification of using 1×PBS and 1% dry milk powder for the diluent. BVP extract was obtained from INSERM (Nantes, France).

For test [8], the target named is T1, human B-Cell Maturation Antigen (BCMA). The test can be described thus: BioLayer Interferometry, Octet QK384, kinetics mode; monovalent form. Background: BLI is a label-free optical method that tracks binding on a fibre tip over time.
Protocol: as §1

B1: anti-BCMA heavy chain-only antibody 308902, bivalent form (antibody, V domains shown)
VH: EVQLLESGGGLVQPGGSLRLSCAASGFTVSSYGMSWVRQAPGKGPEWVSGIRGSDGSTYYADSVKGRFTISRDNSKNTLYLQMNSLRAEDTAVYYCAKQGENDGPFDHRGQGTLVTVSS
notes: Heavy chain-only antibody with no light chain; UniAbs were expressed in HEK cells with CH1 deleted; also called UniAb 308902 (bivalent)
In turn, B1 displayed a Kd in test [1] of 0.053 nM. Also, the koff in test [2] was 0.000177 s⁻¹. In test [2], this molecule displayed a kon of 3.38e+06 M⁻¹ s⁻¹. Further, the “ELISA Binding Ratio (expt signal / dilutent only)” value was 1.1 in test [3], 0.8 in test [4], 868 in test [5] and 1.1 in test [6]. The “ELISA Binding Ratio (expt signal / dilutent only), BVPscore” value in test [7] turned out to be 1.1.

B2: anti-BCMA heavy chain-only antibody 308902, monovalent form (antibody, V domains shown)
VH: EVQLLESGGGLVQPGGSLRLSCAASGFTVSSYGMSWVRQAPGKGPEWVSGIRGSDGSTYYADSVKGRFTISRDNSKNTLYLQMNSLRAEDTAVYYCAKQGENDGPFDHRGQGTLVTVSS
notes: Heavy chain-only antibody with no light chain; UniAbs were expressed in HEK cells with CH1 deleted; also called UniAb 308902 (monovalent)
For B2, in test [2], the off-rate (koff) is 0.000719 s⁻¹ and the on-rate (kon) stood at 923000 M⁻¹ s⁻¹. This molecule also showed a Kd in test [8] of 0.779 nM.

As usually defined, the koff is a measure of how fast the partners let go of each other. Higher therefore signals a short-lived complex. A word on the kon: it is the rate constant with which the complex forms.
